Target: IL-4R (interleukin-4 receptor) (UniProt P24394)
Assay: cell-based or functional assay

Chain of UniProt P24394 (P24394 26-825 limits assumed): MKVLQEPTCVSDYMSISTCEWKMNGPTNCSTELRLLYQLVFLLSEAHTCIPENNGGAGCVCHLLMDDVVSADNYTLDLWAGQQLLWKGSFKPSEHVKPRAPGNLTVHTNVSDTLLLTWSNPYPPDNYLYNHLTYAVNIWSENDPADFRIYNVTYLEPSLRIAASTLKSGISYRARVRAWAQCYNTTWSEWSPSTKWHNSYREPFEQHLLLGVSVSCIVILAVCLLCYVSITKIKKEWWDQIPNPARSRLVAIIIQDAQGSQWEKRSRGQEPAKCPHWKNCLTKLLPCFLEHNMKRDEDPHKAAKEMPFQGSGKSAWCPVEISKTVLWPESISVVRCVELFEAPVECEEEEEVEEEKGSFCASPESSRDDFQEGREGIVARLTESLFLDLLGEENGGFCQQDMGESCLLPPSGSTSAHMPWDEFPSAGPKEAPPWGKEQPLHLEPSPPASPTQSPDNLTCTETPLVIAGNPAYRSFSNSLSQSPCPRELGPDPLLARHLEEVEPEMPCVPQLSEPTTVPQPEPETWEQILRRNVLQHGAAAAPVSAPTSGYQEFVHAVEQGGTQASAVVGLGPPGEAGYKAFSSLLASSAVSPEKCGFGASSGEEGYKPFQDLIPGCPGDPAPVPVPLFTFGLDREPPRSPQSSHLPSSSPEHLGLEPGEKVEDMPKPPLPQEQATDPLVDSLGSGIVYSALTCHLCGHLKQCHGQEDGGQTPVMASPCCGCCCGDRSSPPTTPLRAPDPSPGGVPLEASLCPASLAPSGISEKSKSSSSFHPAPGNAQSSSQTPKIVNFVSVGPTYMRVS

B1: anti-IL-4R:anti-CD63 conjugate (streptavidin-conjugated anti-IL-4R antibody combined 1:1 with biotinylated anti-CD63 antibody MEM-259) (bispecific antibody, part only; not given: anti-CD63 MEM-259 antibody, constant regions, V domains shown, part only)
VH: EVQLVESGGGVVQPGRSLRLSCVASGFTFSDYGMHWVRQAPGKGLEWVAVIWYDGSIKYFRDSVKGRFTISRDNSKNTLYLQMNSLRVEDTAHYYCAKESSSWYFYHGLDVWGQGTMVTVSS
VL: EIVMTQSPLSLPVSPGEPASISCRSNQSLLHSNGNNYLAWYLQKPGQSPHLLIYLGSNRASGVPDRFSGSGSGTDFTLKISRVEAGDVGTYFCMQSLQAPPFTFGPGTKVEIKR
modifications: antibody conjugated to streptavidin
attenuation of IL-4R activity relative to the control constructs: > 10%

Reference: US20200095338A1
